Results as given in IntAct's records for PubMed 35512704.

B1: Mothers against decapentaplegic homolog 4 (Homo sapiens), Q13485 (parent)
chain: MDNMSITNTPTSNDACLSIVHSLMCHRQGGESETFAKRAIESLVKKLKEKKDELDSLITAITTNGAHPSKCVTIQRTLDGRLQVAGRKGFPHVIYARLWRWPDLHKNELKHVKYCQYAFDLKCDSVCVNPYHYERVVSPGIDLSGLTLQSNAPSSMMVKDEYVHDFEGQPSLSTEGHSIQTIQHPPSNRASTETYSTPALLAPSESNATSTANFPNIPVASTSQPASILGGSHSEGLLQIASGPQPGQQQNGFTGQPATYHHNSTTTWTGSRTAPYTPNLPHHQNGHLQHHPPMPPHPGHYWPVHNELAFQPPISNHPAPEYWCSIAYFEMDVQVGETFKVPSSCPIVTVDGYVDPSGGDRFCLGQLSNVHRTEAIERARLHIGKGVQLECKGEGDVWVRCLSDHAVFVQSYYLDREAGRAPGDAVHKIYPSAYIKVFDLRQCHRQMQQQAATAQAAAAAQAAAVAGNIPGPGSVGGIAPAISLSAAAGIGVDDLRRLCILRMSFVKGWGPDYPRQSIKETPCWIEIHLHRALQLLDEVLHTMPIADPQPLD
partner: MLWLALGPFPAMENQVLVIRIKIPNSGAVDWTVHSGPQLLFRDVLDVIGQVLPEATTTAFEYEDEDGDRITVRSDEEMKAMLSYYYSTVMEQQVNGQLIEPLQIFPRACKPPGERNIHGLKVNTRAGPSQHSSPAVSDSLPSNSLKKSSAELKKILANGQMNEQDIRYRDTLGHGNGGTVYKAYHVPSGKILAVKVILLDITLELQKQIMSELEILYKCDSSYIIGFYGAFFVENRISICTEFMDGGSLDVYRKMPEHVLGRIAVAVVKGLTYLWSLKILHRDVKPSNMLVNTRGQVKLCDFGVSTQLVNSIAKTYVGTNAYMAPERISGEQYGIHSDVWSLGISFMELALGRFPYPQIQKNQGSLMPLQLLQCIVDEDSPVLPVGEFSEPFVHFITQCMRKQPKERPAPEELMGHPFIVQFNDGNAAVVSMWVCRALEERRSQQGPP
B2: Mothers against decapentaplegic homolog 4 (Homo sapiens), Q13485 (parent)
chain: B1 chain
partner: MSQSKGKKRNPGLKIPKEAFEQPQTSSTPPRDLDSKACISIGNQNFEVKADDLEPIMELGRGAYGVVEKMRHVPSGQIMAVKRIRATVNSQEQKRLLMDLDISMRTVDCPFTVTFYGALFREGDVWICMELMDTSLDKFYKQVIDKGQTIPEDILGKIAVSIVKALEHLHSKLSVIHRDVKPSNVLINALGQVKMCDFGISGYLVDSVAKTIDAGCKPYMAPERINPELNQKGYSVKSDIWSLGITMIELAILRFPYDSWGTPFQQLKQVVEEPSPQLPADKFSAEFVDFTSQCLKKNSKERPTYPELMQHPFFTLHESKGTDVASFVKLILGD
B3: Mothers against decapentaplegic homolog 4 (Homo sapiens), Q13485 (parent)
chain: B1 chain
partner: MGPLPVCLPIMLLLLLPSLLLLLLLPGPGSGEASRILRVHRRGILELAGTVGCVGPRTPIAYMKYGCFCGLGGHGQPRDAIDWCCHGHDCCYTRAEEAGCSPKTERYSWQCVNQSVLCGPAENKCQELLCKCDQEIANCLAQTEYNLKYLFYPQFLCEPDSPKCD
B4: Mothers against decapentaplegic homolog 4 (Homo sapiens), Q13485 (parent)
chain: B1 chain
partner: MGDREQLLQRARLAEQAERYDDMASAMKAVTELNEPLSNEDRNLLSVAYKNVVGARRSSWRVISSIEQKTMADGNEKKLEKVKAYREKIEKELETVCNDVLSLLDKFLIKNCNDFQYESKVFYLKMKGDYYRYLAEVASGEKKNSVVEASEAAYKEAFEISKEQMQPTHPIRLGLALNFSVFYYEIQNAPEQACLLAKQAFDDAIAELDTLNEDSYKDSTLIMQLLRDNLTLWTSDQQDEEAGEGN
B5: Mothers against decapentaplegic homolog 4 (Homo sapiens), Q13485 (parent)
chain: B1 chain
partner: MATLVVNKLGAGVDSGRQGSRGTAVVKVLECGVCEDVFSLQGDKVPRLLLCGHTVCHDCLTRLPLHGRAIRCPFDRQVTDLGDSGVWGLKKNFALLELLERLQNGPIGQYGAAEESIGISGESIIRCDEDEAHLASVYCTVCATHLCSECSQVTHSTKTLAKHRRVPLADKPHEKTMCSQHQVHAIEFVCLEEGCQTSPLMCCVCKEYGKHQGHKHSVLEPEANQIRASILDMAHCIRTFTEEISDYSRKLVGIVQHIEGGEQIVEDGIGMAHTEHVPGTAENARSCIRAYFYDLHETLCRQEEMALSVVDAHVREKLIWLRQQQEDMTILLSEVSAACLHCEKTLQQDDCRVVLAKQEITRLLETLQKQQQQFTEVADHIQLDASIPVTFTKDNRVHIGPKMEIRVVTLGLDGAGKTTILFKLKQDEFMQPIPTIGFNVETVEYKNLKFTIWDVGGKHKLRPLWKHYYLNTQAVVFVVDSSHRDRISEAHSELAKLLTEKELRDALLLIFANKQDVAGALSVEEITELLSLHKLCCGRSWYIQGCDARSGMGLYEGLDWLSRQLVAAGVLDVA
B6: Mothers against decapentaplegic homolog 4 (Homo sapiens), Q13485 (parent)
chain: B1 chain
partner: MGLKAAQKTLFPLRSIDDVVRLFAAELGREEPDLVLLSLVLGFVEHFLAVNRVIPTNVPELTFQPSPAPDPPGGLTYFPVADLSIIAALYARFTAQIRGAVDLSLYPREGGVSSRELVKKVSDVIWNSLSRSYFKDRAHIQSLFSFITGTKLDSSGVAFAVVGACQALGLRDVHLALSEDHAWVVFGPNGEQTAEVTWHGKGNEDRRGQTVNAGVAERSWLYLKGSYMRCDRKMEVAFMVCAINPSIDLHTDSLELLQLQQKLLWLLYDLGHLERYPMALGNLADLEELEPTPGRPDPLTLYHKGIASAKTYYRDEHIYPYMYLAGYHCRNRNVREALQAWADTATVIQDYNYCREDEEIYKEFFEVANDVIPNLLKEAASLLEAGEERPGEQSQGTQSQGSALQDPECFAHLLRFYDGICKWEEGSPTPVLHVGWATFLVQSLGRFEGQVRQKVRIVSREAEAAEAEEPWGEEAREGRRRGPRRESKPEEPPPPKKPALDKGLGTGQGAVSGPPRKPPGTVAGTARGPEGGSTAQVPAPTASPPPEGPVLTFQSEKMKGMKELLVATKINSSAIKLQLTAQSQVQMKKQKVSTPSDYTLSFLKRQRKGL

Variants of: B1
Settings: with mp2k5_human MAP2K5, Q13163

Variant | effect of a mutation on the interaction
D351H | with no effect

Variants of: B1
Settings: with mp2k5_human MAP2K5, Q13163
Remark: another data set of the same source

Variant | effect of a mutation on the interaction
R361H | with no effect

Variants of: B1
Settings: with mp2k5_human MAP2K5, Q13163
Remark: another data set of the same source

Variant | effect of a mutation on the interaction
R361C | with no effect

Variants of: B1
Settings: with mp2k5_human MAP2K5, Q13163
Remark: another data set of the same source

Variant | effect of a mutation on the interaction
G386D | with no effect

Variants of: B2
Settings: with mp2k6_human MAP2K6, P52564

Variant | effect of a mutation on the interaction
G386D | with no effect

Variants of: B2
Settings: with mp2k6_human MAP2K6, P52564
Remark: another data set of the same source

Variant | effect of a mutation on the interaction
D351H | with no effect

Variants of: B2
Settings: with mp2k6_human MAP2K6, P52564
Remark: another data set of the same source

Variant | effect of a mutation on the interaction
R361H | with no effect

Variants of: B2
Settings: with mp2k6_human MAP2K6, P52564
Remark: another data set of the same source

Variant | effect of a mutation on the interaction
R361C | with no effect

Variants of: B3
Settings: with pa2gx_human PLA2G10, O15496

Variant | effect of a mutation on the interaction
D351H | with no effect

Variants of: B3
Settings: with pa2gx_human PLA2G10, O15496
Remark: another data set of the same source

Variant | effect of a mutation on the interaction
R361C | with no effect

Variants of: B3
Settings: with pa2gx_human PLA2G10, O15496
Remark: another data set of the same source

Variant | effect of a mutation on the interaction
G386D | with no effect

Variants of: B4
Settings: with 1433f_human YWHAH

Variant | effect of a mutation on the interaction
D351H | with no effect

Variants of: B4
Settings: with 1433f_human YWHAH
Remark: another data set of the same source

Variant | effect of a mutation on the interaction
R361C | with no effect

Variants of: B4
Settings: with 1433f_human YWHAH
Remark: another data set of the same source

Variant | effect of a mutation on the interaction
R361H | with no effect

Variants of: B4
Settings: with 1433f_human YWHAH
Remark: another data set of the same source

Variant | effect of a mutation on the interaction
G386D | with no effect

Variants of: B5
Settings: with tri23_human TRIM23, P36406

Variant | effect of a mutation on the interaction
G386D | with no effect

Variants of: B5
Settings: with tri23_human TRIM23, P36406
Remark: another data set of the same source

Variant | effect of a mutation on the interaction
D351H | with no effect

Variants of: B5
Settings: with tri23_human TRIM23, P36406
Remark: another data set of the same source

Variant | effect of a mutation on the interaction
R361C | with no effect

Variants of: B5
Settings: with tri23_human TRIM23, P36406
Remark: another data set of the same source

Variant | effect of a mutation on the interaction
R361H | with no effect

Variants of: B6
Settings: with men1_human MEN1, O00255

Variant | effect of a mutation on the interaction
G386D | with no effect

Variants of: B6
Settings: with men1_human MEN1, O00255
Remark: another data set of the same source

Variant | effect of a mutation on the interaction
R361H | with no effect

Variants of: B6
Settings: with men1_human MEN1, O00255
Remark: another data set of the same source

Variant | effect of a mutation on the interaction
R361C | with no effect

Variants of: B6
Settings: with men1_human MEN1, O00255
Remark: another data set of the same source

Variant | effect of a mutation on the interaction
D351H | with no effect
